In patent US20170202915A1 (TUFTS UNIVERSITY, published 2017):

B1: recombinant full-length galectin-8 (other, UniProt O00214 1-317, looked up)
chain: MMLSLNNLQNIIYNPVIPFVGTIPDQLDPGTLIVIRGHVPSDADRFQVDLQNGSSMKPRADVAFHFNPRFKRAGCIVCNTLINEKWGREEITYDTPFKREKSFEIVIMVLKDKFQVAVNGKHTLLYGHRIGPEKIDTLGIYGKVNIHSIGFSFSSDLQSTQASSLELTEISRENVPKSGTPQLRLPFAARLNTPMGPGRTVVVKGEVNANAKSFNVDLLAGKSKDIALHLNPRLNIKAFVRNSFLQESWGEEERNITSFPFSPGMYFEMIIYCDVREFKVAVNGVHSLEYKHRFKELSSIDTLEINGDIHLLEVRSW
notes: mature; Tandem-repeat lectin with an N-CRD and a C-CRD; also called Gal-8; exogenous Gal-8
B2: podoplanin (receptor, human, UniProt Q86YL7 23-162, looked up)
chain: ASTGQPEDDTETTGLEGGVAMPGAEDDVVTPGTSEDRYKSGLTTLVATSVNSVTGIRIEDLPTSESTVHAQEQSPSATASNVATSHSTEKVDGDTQTTVEKDGLSTVTLVGIIVGVLLAIGFIGAIIVVVMRKMSGRYSP
modifications: O-glycosylated with alpha2,3-sialyl glycans
notes: whole, on cells; Endogenous protein from LEC lysates in the pulldowns and co-immunoprecipitation; also called PDPN

How the values were obtained:
VEGFR-1 = biological target: T1, VEGFR-1 (UniProt P17948 27-1338, limits assumed); assay: galectin-agarose pulldown from primary LECs, western blot (FIG. 21A)
T1 construct: whole, on cells
Description: Primary LECs were incubated with agarose beads (control), and galectin-conjugated agarose beads at 4° C. overnight. Unbound proteins were removed and the bound proteins were eluted with 20 μL of 2× Laemmli sample buffer and analyzed and compared to control input by western blotting. […] LEC lysates incubated with unconjugated beads served as a negative control.

recombinant galectin-3 = biological target: T2, recombinant galectin-3 (UniProt P17931 2-250); assay: galectin-agarose pulldown from LEC lysates, anti-PDPN western blot (FIG. 7A)
T2 construct: also called Gal-3
T2 sequence (P17931 2-250 limits assumed): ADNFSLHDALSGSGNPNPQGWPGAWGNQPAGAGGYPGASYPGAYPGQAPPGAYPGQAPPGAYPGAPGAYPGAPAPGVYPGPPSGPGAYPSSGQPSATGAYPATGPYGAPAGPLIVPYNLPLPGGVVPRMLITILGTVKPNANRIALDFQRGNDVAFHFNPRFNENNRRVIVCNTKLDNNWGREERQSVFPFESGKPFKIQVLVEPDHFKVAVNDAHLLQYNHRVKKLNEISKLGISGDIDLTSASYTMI
Description: Bound proteins were examined and were compared to total cell lysates (input) by western blot using anti-PDPN. […] Primary LECs were transfected with control (mock) or two siRNA that targeted different regions of PDPN. Knockdown efficiency was assessed by western blot using anti-PDPN and anti-β-actin antibodies. […] Primary LECs were transfected with control or PDPN siRNA. […] Data are plotted as mean±SEM and analyzed using Student's t test (FIG. 7C and FIG. 7F). *P<0.05, ***P<0.001 vs corresponding control.
Bound proteins were examined with total cell lysates (input) by western blot using an anti-PDPN antibody.

T1 sequence (P17948 27-1338 limits assumed): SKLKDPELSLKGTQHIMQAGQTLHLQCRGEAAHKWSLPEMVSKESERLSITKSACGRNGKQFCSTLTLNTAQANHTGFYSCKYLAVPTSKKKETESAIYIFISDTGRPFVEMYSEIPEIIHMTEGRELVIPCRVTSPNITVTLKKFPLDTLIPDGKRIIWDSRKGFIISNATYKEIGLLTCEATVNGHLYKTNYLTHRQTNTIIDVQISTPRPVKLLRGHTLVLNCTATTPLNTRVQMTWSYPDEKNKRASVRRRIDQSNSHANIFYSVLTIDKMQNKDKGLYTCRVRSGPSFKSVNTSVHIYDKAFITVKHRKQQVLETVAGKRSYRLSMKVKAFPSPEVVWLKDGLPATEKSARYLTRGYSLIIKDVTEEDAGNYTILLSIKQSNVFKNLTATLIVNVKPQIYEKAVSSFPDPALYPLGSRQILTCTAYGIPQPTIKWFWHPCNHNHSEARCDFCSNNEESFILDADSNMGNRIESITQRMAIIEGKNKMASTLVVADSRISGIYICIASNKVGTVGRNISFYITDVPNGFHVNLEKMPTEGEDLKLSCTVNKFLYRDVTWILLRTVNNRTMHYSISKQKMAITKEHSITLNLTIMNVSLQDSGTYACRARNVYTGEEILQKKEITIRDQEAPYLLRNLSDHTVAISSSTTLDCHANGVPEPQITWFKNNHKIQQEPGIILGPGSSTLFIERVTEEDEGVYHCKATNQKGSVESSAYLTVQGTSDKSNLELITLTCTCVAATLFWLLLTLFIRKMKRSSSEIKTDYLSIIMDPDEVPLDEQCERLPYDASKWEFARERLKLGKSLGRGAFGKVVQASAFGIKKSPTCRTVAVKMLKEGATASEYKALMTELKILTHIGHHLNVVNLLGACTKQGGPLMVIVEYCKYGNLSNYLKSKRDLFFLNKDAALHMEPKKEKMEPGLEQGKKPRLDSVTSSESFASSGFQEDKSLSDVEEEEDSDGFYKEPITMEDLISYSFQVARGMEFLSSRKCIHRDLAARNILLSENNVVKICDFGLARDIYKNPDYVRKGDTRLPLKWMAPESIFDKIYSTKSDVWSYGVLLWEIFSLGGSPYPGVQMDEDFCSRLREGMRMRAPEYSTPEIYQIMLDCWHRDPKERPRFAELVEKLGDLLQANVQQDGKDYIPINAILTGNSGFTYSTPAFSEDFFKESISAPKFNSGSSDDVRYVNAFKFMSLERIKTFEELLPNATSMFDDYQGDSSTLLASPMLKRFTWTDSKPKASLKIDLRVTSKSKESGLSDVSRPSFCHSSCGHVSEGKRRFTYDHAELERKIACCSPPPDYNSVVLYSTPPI

Binder | binding result (VEGFR-1) | binding result (recombinant galectin-3)
B1 | no binding | –
B2 | – | no binding
